Data reported in patent US20230242654A1 (published 2023).

Target: anti-CD19 CAR having an scFv derived from FMC63 (expressed on T cells) (Mus musculus (Mouse), UniProt P01644 1-106)
Experiment: cell-based or functional assay

anti-CD19 CAR having an scFv derived from FMC63 (expressed on T cells), sequence (VH, as listed by the source, chain 1 of 2): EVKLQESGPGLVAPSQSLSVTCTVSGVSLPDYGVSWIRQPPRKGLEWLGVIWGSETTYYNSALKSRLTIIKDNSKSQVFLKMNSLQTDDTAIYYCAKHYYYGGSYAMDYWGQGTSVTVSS
anti-CD19 CAR having an scFv derived from FMC63 (expressed on T cells), sequence (P01644 other isoform, or with tags, fused parts or gaps, chain 2 of 2): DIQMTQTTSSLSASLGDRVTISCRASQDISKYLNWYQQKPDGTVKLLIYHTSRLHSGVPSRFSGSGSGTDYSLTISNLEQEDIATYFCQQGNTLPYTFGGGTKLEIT

fold expansion of CAR-expressing (EGFRt+) CD4+ T cells cultured alone with anti-ID B-1 conjugated beads, up to 9 days: > 60 fold
B1: Anti-ID B-1 (FMC63-derived scFv-specific anti-idiotype antibody) (antibody, mouse IgG2a, kappa, V domains shown)
VH: EVQLQQSGPELVKPGASVKMSCKASGYTFTDYYMKWVKQCHGKSLEWIGDINPNNGGTDYNQNFKGKATLTVDKSSSTAYMQLNSLTSEDSAVYYCAREGNNYGSRDAMDYWGQGTSVTVSS
VL: QIVLTQSPALMSASPGEKVTMTCSASSGVIYMYWYQQKPRSSPKPWIYLTSNLASGVPARFSGSGSGTSYSLTISSMEAEDAATYYCQQWSSNPLTFGAGTKLELKR
